Assay: soluble on expression in E. coli; label from the status in PepcDB or PDB records

| Sequence | soluble on expression in E. coli |
| --- | --- |
| GMPTLEMPVAAVLDSTVGSSEALPDFTSDRYKDAYSRINAIVIEGEQEAHDNYIAIGTLLPDHVEELKRLAKMEMRHKKGFTACGKNLGVEADMDFAREFFAPLRDNFQTALGQGKTPTCLLIQALLIEAFAISAYHTYIPVSDPFARKITEGVVKDEYTHLNYGEAWLKANLESCREELLEANRENLPLIRRMLDQVAGDAAVLQMDKEDLIEDFLIAYQESLTEIGFNTREITRMAAAALVS | soluble |
| MRSDGRKEDQLRPVSIQRDFLEYPEGSCLISFGKTKVICTASVIENVPNWLKGKGQGWITAEYSMLPRATQQRTIRESVQGRIGGRTHEIQRMIGRAMRTAVELTKIGERTIWVDCDVIQADGGARTAAITGAFVAVADAIIKLHKEGIIEETPIKDFVAAVSVGIVNDRILLDLNFEEDSAAQVDMNVVGTGSGRLSEVHTMGEEYSFTKDELIKMLDLAQKGINELIELQKKLYVIQDGKWERSELKEVSSTT | soluble |
| MGGSHHHHHHGMASALATRQRESSITSCCSTSSCDADDEGVRGTCEDASLCKRFAVSIGYWHDPYIQHFVRLSKERKAPEINRGYFARVHGVSQLIKAFLRKTECHCQIVNLGAGMDTTFWRLKDEDLLPSKYFEVDFPMIVTRKLHSIKCKPPLSSPILELHSEDTLQMDGHILDSKRYAVIGADLRDLSELEEKLKKCNMNTQLPTLLIAECVLVYMTPEQSANLLKWAANSFERAMFINYEQVNMGDRFGQIMIENLRRRQCDLAGVETCKSLESQKERLLSNGWETASAVDMMELYNRLPRAEVSRIESLEFLDEMELLEQLMRHYCLCWATKGGNELGLKEITY | not soluble |
| MDYDQQPIMYDEVELLIQAVDQQPHPLLRLRDKAIIQLGLQGGFRRSELANLKVHYLSFMRDKLKVRLPFSKSNQQGLREWKSLPDSEPFAAYHAVKSWLNESQITDGHLFRSISRDGKTLRPYHVNDNSKPKSTFSRNSGFLNGDDIYRIIKQYCLKAGLPAQYYGAHSLRSGCVTQLHENNKDILYIMARTGHTDPRSLRHYLKPKEDLEHHHHHH | not soluble |
| MSLDLKEIVQAGAFDLHIHTTASDGEYSPTAIVKKAKEIGLRTIAITDHDTLDGIEEAVIAGKRHGINVIPAIELTTKYKGTNVDILGYNVKASEKLQAILVQLKKHREGRAMQIIEKFNDIGFTITLDEVKQFSEDGVIARPHIAKAIVKKGYVLDYQTVFDEYLADGKPCAIDKMILTPEEGIKLIHEAGGKAILAHPVYLEDTLVRELLALDFDGIEVWHRNHDETDQEKYKMLATEFALIKTGGSDFHTDEHSLGQFGWKADEEGHHHHHH | soluble |
| MSAEAVIENRDYTLMIDKSSSMATADDPNGPTRWEIAQASTIALAKKCEEIDSDGITVYLFSGRFRRYDNVTAEKVAYIYANNEPMGRTDLAGALKDGLDNFFQRRQAGQTKPNGETFLIITDGEPTDRKAVIRLILEASQKIDRDEELAISLIQVGRDKKATAFFQALDDQLQAAGAKFDIVDTVTMEDMQGMSLSDVLLKAITDLEHHHHHH | not soluble |
| MAHHHHHHMPFSLGELQNVFLDALTGCPPDAPQQTRDTAVTVAGASIFAGSWQPLESTRVPVRAYLRGTGEFDTEDSCRRAVMRVVDATLNDVLNDDAVNAFIGAKACESADIVGACEHILRKYLLWMLDGYLHYDGTPQCPFYDALKSTVCAFSVEWGQTFGPMFAEAQSPDEFFSLLVTRGAQHHATAVATNPDDAKVRMATAMSIQVFLMAKTYSPSTPFPSRVAL | soluble |
| MGSDKIHHHHHHMKPGFVDPVFDAQAVFRAALLATAYPGRVVPLDRTLTAPRPFSSATAALCLSLMDFETPAWLDNSLDCGELTAWLRFHCSLPLTETAGEARFAIVSDPANLPRLCELHPGDAEYPDRSTTLIIQVPSFTDGPTTTWTGPGVNGSIPVGIAGLPFWFWADWDLNSELYPRGIDVVFTSGNAVIGLPRTIKVEA | not soluble |
| MGSDKIHHHHHHMIKNAVKKIIDMEWFARMMEVLDHRSDNRMTELGMLSQAFEFIKINEVCGDYLEFGLWRGKTFGYAHRMKHRYRRQDMKLWGFDSFQGLPDTGAHPDNIWYKGQFACSRPEFESILKSRGIRSCEYELVEGFYRESLNDATRRRLAGRKAAIVYIDCDLYDSTVEVLDFIQPYLVNGSIVCFDDFYNYKADPEQGEQKALSDFLRKESGICFIPYMAYAPLGKSFICRRT | not soluble |
